# Results: US20230127694A1, “NEUROPROTECTIVE PEPTIDE” (published 2023)
# Non-standard residues stand in square brackets, D forms with d. No end group written: not given here.
# Biological target: ERK1 MAP kinase (MAPK3), mouse (mouse, UniProt Q63844)
# Assay: cell-based or functional assay
binder,measurement,value
Ac-GRKKRRQRRRPPQGGGGGEPRRTEGVGPGVPGEVEMVKGQPFD[dV] [CPP-RB5],"EC50 of phospho-ERK positive cells in striatal slices (immunohistochemistry, dose response)",3.4 µM
